From paper PMC3352945 (The Journal of Cell Biology, 2012) come the findings set out here.

For experiment [1], the target named is T1, cpTatC (pea (endogenous in pea thylakoids)). The experiment in a line: co-IP.
Experiment [2] concerns the target T1, cpTatC. The experiment in a line: radioligand binding.

B1: tOE17 V-20F precursor protein (natural protein)
chain: MASAEGDAVAQAGRRAFIGLVATGIVGGALSQAARAETVKTIKIGAPPPPSGGLPGTLNSDQARDFDLPLKERFYLQPLPPAEAAARVKTSAQDIINLKPLIDKKAWPYVQNDLRLRASYLRYDLKTVIASKPKEEKKSLKELTGKLFSTIDDLDHAAKIKSTPEAEKYFAATKDALGDVLAKLG
modifications: [3H]-Leu radiolabel (unlabeled tOE17 used as the chase in the dissociation test)
On to B1, for which the “stoichiometry N” value in experiment [1] is 0.79 tOE17 per cpTatC. Besides, in experiment [2], binding was characterised by a dissociation constant (Kd) of 1.07 nM and the “stoichiometry N” value is 1.27 tOE17 per cpTatC.
